± gives the standard deviation of the averaged measurements.
How the values were obtained:
[1] = tested on: Saccharomyces cerevisiae; experiment: protein stability index of tFT-peptide fusion (C-terminal peptide) (PSI (0-1 scale)); higher = more stable (slower turnover); conditions: genetic background: wild type; temperature: 30 C
[2] = tested on: Saccharomyces cerevisiae; experiment: as above
Description: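 MPS profiling in S. cerevisiae of the tFT-X12 degron library: putative degron peptides plus stable controls, 12 aa, fused to the C-terminus of a sfGFP-mCherry timer. Cells are FACS-sorted into 8 mCherry/sfGFP bins and deep-sequenced. PSI runs from 0 (unstable) to 1 (stable). Backgrounds are wild type, das1Δ and doa10Δ at 30 °C, and wild type, das1Δ, cdc34-1 and cdc53-1 at 37 °C; 2-3 technical replicates each.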

[3] = genetic background: cdc34-1, temperature: 37 C
[4] = genetic background: cdc53-1, temperature: 37 C
[5] = genetic background: das1 deletion, temperature: 30 C
[6] = genetic background: das1 deletion, temperature: 37 C
[7] = genetic background: doa10 deletion, temperature: 30 C
[8] = genetic background: wild type, temperature: 30 C
[9] = genetic background: wild type, temperature: 37 C
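Further: PSI is a weighted mean of sequencing reads over stability bins, variants kept only with over 10 reads, mCherry proximal and sfGFP distal, peptide attached via GGGS linker.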

| Sequence | protein stability index [1] | protein stability index [2, 3] | protein stability index [2, 4] | protein stability index [2, 5] | protein stability index [2, 6] | protein stability index [2, 7] | protein stability index [2, 8] | protein stability index [2, 9] |
| --- | --- | --- | --- | --- | --- | --- | --- | --- |
| IERLRLRTRIIC | 0.2349 ± 0.0012 | 0.469 ± 0.053 | 0.481 ± 0.049 | 0.423 ± 0.021 | 0.542 ± 0.0096 | 0.127 ± 0.015 | 0.131 ± 0.036 | 0.13441 ± 5e-06 |
| IFIVLDFRCVSS | 0.339 ± 0.016 | 0.302 ± 0.1 | 0.463 ± 0.024 | 0.256 ± 0.016 | 0.4371 ± 0.0012 | 0.243 ± 0.011 | 0.242 ± 0.043 | 0.381 ± 0.046 |
| IFLLFPFSWRIF | 0.446 ± 0.034 | 0.596 ± 0.042 | 0.6301 ± 0.0061 | 0.56 ± 0.039 | 0.694 ± 0.011 | 0.364 ± 0.027 | 0.376 ± 0.033 | 0.539 ± 0.036 |
| IFLLLRRIIALS | 0.107 ± 0.12 | 0.126 ± 0.0094 | 0.326 ± 0.044 | 0.411 ± 0.047 | 0.554 ± 0.023 | 0.0418 ± 0.017 | 0.0337 ± 0.0068 | 0.0499 ± 0.018 |
| IFPSRSLLAASA | 0.446 ± 0.0097 | 0.403 ± 0.013 | 0.457 ± 0.062 | 0.339 ± 0.033 | 0.5192 ± 0.0019 | 0.317 ± 0.016 | 0.339 ± 0.025 | 0.48 ± 0.028 |
| IFSFRWVLPFWL | 0.365 ± 0.098 | 0.611 ± 0.059 | 0.701 ± 0.008 | 0.6 ± 0.026 | 0.70093 ± 0.00061 | 0.2407 ± 0.00051 | 0.256 ± 0.04 | 0.424 ± 0.0043 |
| IHCLSIVVHGLS | 0.499 ± 0.043 | 0.527 ± 0.045 | 0.569 ± 0.047 | 0.471 ± 0.024 | 0.588 ± 0.0099 | 0.48 ± 0.016 | 0.475 ± 0.019 | 0.563 ± 0.027 |
| IHIFIIFRVQWK | 0.227 ± 0.012 | 0.176 ± 0.064 | 0.232 ± 0.036 | 0.179 ± 0.025 | 0.272 ± 0.018 | 0.163 ± 0.0023 | 0.156 ± 0.05 | 0.249 ± 0.03 |
| IHRSPLTLPLLV | 0.468 ± 0.08 | 0.526 ± 0.021 | 0.584 ± 0.023 | 0.461 ± 0.031 | 0.5726 ± 0.005 | 0.406 ± 0.014 | 0.435 ± 0.019 | 0.5383 ± 0.0043 |
| IIFCVRVVGGDL | 0.46 ± 0.04 | 0.449 ± 0.038 | 0.508 ± 0.0054 | 0.371 ± 0.029 | 0.5566 ± 0.00057 | 0.332 ± 0.0066 | 0.38 ± 0.018 | 0.5288 ± 0.0041 |
| IIIRVTILCEQF | 0.241 ± 0.0066 | 0.135 ± 0.097 | 0.176 ± 0.0098 | 0.146 ± 0.02 | 0.258 ± 0.018 | 0.113 ± 0.0089 | 0.137 ± 0.0053 | 0.212 ± 0.011 |
| IILAIRLLVDTL | 0.248 ± 0.021 | 0.0479 ± 0.026 | 0.179 ± 0.012 | 0.146 ± 0.025 | 0.266 ± 0.011 | 0.12 ± 0.0039 | 0.132 ± 0.025 | 0.238 ± 0.026 |
| IILRPQYVHYFL | 0.454 ± 0.018 | 0.532 ± 0.035 | 0.594 ± 0.027 | 0.497 ± 0.025 | 0.5597 ± 0.00026 | 0.482 ± 0.023 | 0.484 ± 0.025 | 0.5457 ± 0.00084 |
| IIVLNIGSVIFC | 0.4951 ± 0.0022 | 0.456 ± 0.063 | 0.5884 ± 0.002 | 0.397 ± 0.018 | 0.5716 ± 0.0053 | 0.387 ± 0.0076 | 0.4057 ± 0.0017 | 0.549 ± 0.028 |
| IKSLLGCWHKHY | 0.479 ± 0.018 | 0.679 ± 0.017 | 0.732 ± 0.0077 | 0.647 ± 0.031 | 0.7145 ± 0.0066 | 0.279 ± 0.028 | 0.303 ± 0.057 | 0.574 ± 0.04 |
| ILCVEFFVSVSV | 0.218 ± 0.0027 | 0.0684 ± 0.008 | 0.2486 ± 0.0024 | 0.163 ± 0.025 | 0.277 ± 0.0064 | 0.136 ± 0.01 | 0.16 ± 0.0059 | 0.23 ± 0.021 |
| ILFVCVCVLHVG | 0.242 ± 0.025 | 0.112 ± 0.0052 | 0.198 ± 0.012 | 0.17 ± 0.027 | 0.307 ± 0.0048 | 0.121 ± 0.013 | 0.141 ± 0.019 | 0.252 ± 0.021 |
| INKRDARIHLLM | 0.47 ± 0.0047 | 0.658 ± 0.012 | 0.6975 ± 0.0064 | 0.623 ± 0.023 | 0.701 ± 0.00084 | 0.32 ± 0.034 | 0.382 ± 0.029 | 0.547 ± 0.0084 |
| IPHLNCCCCLVR | 0.442 ± 0.052 | 0.527 ± 0.013 | 0.497 ± 0.023 | 0.334 ± 0.035 | 0.5878 ± 0.0048 | 0.272 ± 0.0053 | 0.328 ± 0.02 | 0.5503 ± 0.0019 |
| IRDGPWKRVLVV | 0.348 ± 0.051 | 0.599 ± 0.031 | 0.596 ± 0.01 | 0.48 ± 0.028 | 0.642 ± 0.0055 | 0.125 ± 0.0086 | 0.157 ± 0.015 | 0.245 ± 0.0076 |

| Sequence | protein stability index [1] | protein stability index [2, 3] | protein stability index [2, 4] | protein stability index [2, 5] | protein stability index [2, 6] | protein stability index [2, 7] | protein stability index [2, 8] | protein stability index [2, 9] |
| --- | --- | --- | --- | --- | --- | --- | --- | --- |
| IRVLACFLFAVS | 0.17 ± 0.01 | 0.202 ± 0.016 | 0.305 ± 0.017 | 0.172 ± 0.0094 | 0.32 ± 0.0072 | 0.095 ± 0.0081 | 0.12 ± 0.022 | 0.247 ± 0.025 |
| IVFGWGVEWGRL | 0.69 ± 0.28 | 0.757 ± 0.038 | 0.803 ± 0.027 | 0.692 ± 0.014 | 0.7973 ± 0.0035 | 0.691 ± 0.038 | 0.701 ± 0.021 | 0.783 ± 0.017 |
| IVLCVFTVDSDF | 0.407 ± 0.0073 | 0.36 ± 0.0079 | 0.478 ± 0.058 | 0.314 ± 0.024 | 0.5441 ± 0.0044 | 0.266 ± 0.006 | 0.291 ± 0.021 | 0.5126 ± 0.0039 |
| IVSFRLDLSLAV | 0.534 ± 0.051 | 0.532 ± 0.069 | 0.5949 ± 0.0024 | 0.452 ± 0.023 | 0.55891 ± 0.00017 | 0.448 ± 0.014 | 0.458 ± 0.02 | 0.5467 ± 0.0024 |
| IVWVSSFVCRSV | 0.43 ± 0.044 | 0.508 ± 0.082 | 0.574 ± 0.02 | 0.436 ± 0.0072 | 0.524 ± 0.0075 | 0.447 ± 0.015 | 0.4257 ± 0.003 | 0.516 ± 0.025 |
| IWVVIISDSRVG | 0.352 ± 0.0071 | 0.33375 ± 0.00011 | – | 0.283 ± 0.059 | 0.488 ± 0.02 | 0.247 ± 0.019 | 0.342 ± 0.094 | 0.4636 ± 0.0027 |
| IWVWMLSVWLGG | 0.349 ± 0.013 | 0.303 ± 0.016 | 0.3731 ± 0.002 | 0.291 ± 0.021 | 0.409 ± 0.022 | 0.273 ± 0.021 | 0.288 ± 0.017 | 0.407 ± 0.018 |
| IYFFVLRLRLCG | 0.233 ± 0.1 | 0.278 ± 0.004 | 0.291 ± 0.021 | 0.235 ± 0.029 | 0.428 ± 0.0065 | 0.16 ± 0.0036 | 0.162 ± 0.015 | 0.253 ± 0.0032 |
| KIHILVVQIATR | 0.0736 ± 0.038 | 0.0402 ± 0.0097 | 0.134 ± 0.0054 | 0.0541 ± 0.0098 | 0.1391 ± 0.00019 | 0.0346 ± 0.0032 | 0.0319 ± 0.013 | 0.114 ± 0.0046 |
| KKNITRLKNKMT | 0.416 ± 0.14 | 0.535 ± 0.032 | 0.676 ± 0.033 | 0.678 ± 0.031 | 0.691 ± 0.059 | 0.212 ± 0.045 | 0.199 ± 0.093 | 0.392 ± 0.086 |
| KLLISLTWFCVL | 0.284 ± 0.092 | 0.395 ± 0.036 | 0.476 ± 0.014 | 0.373 ± 0.029 | 0.527 ± 0.019 | 0.165 ± 0.0032 | 0.192 ± 0.028 | 0.3344 ± 0.00067 |
| KLRMGRYIVRII | 0.259 ± 0.0076 | 0.6637 ± 0.0034 | 0.661 ± 0.041 | 0.569 ± 0.022 | 0.6655 ± 0.0023 | 0.152 ± 0.024 | 0.135 ± 0.019 | 0.242 ± 0.012 |
| KVFWRPAWVAEV | 0.371 ± 0.026 | 0.6563 ± 0.0016 | 0.7475 ± 0.0067 | 0.631 ± 0.016 | 0.733 ± 0.0084 | 0.237 ± 0.011 | 0.28 ± 0.034 | 0.512 ± 0.013 |
| LAVFSSPELSFP | 0.756 ± 0.024 | 0.727 ± 0.012 | 0.788 ± 0.015 | 0.6631 ± 0.0019 | 0.761 ± 0.013 | 0.66 ± 0.034 | 0.676 ± 0.0088 | 0.777 ± 0.0036 |
| LCFTSVFTLFIC | 0.101 ± 0.024 | 0.288 ± 0.028 | 0.469 ± 0.026 | 0.382 ± 0.026 | 0.511 ± 0.006 | 0.0848 ± 0.017 | 0.0664 ± 0.0089 | 0.0756 ± 0.015 |
| LCLLPVCLWDVG | 0.461 ± 0.023 | 0.451 ± 0.026 | 0.513 ± 0.016 | 0.447 ± 0.0076 | 0.501 ± 0.0082 | 0.453 ± 0.0074 | 0.439 ± 0.017 | 0.49 ± 0.0072 |
| LCSCAVVICCSL | 0.377 ± 0.04 | 0.445 ± 0.0054 | 0.4359 ± 0.0021 | 0.299 ± 0.031 | 0.4631 ± 0.0044 | 0.274 ± 0.0047 | 0.309 ± 0.0072 | 0.441 ± 0.019 |
| LCSVWVGIVLLC | 0.165 ± 0.047 | 0.156 ± 0.011 | 0.236 ± 0.045 | 0.23 ± 0.02 | 0.313 ± 0.014 | 0.0996 ± 0.0034 | 0.0964 ± 0.013 | 0.107 ± 0.019 |
| LDLSSLRCRYLL | 0.343 ± 0.099 | 0.639 ± 0.058 | 0.725 ± 0.034 | 0.657 ± 0.021 | 0.765 ± 0.021 | 0.185 ± 0.011 | 0.214 ± 0.014 | 0.427 ± 0.0081 |

Reference: the supplement of paper PMC10724198
